For one substance, FL3-H, FL1-H subset (percent of cells in the FITC-high, mTcRβ-positive gate) results are on record in patent US20220119541A1.

The target in the assay is human GITR (full length, on cells) (human) (UniProt Q9Y5U5). Nature of the assay: FACS dot plot, spleen cells of GITR humanized (B-hGITR) mice, FITC against mTcRβ PerCP [panel hIgG1].
Sequence of human GITR (full length, on cells) (human) (Q9Y5U5 26-241): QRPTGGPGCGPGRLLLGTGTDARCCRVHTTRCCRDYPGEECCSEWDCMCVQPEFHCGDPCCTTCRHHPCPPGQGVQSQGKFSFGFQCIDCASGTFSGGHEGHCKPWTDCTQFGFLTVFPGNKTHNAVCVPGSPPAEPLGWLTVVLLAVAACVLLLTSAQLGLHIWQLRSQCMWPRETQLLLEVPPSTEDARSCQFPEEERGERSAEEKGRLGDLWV

The substance isotype control IgG (antibody) displayed an FL3-H, FL1-H subset (percent of cells in the FITC-high, mTcRβ-positive gate) of 1.08%.
